target: T1, human GLP-1 receptor (human, UniProt P43220 24-463); experiment: cell-based or functional assay

Binder	EC50 hGLP-1R (cAMP) [pM]
HXQGTFTSDLSKQKDSRRAQDFIEWLKAGGPSSGAPPPS (dSer at 2; K(γE-x53) at 14; C-terminal NH2) [SEQ ID NO: 74]	4.2
HXQGTFTSDLSKQKESKAAQEFIEWLKAGGPSSGAPPPS (dSer at 2; K(γE-x53) at 14; C-terminal NH2) [SEQ ID NO: 28]	5.5
HXQGTFTSDLSKQKESRAAXLFIEWLKAGGPSSGAPPPS (dSer at 2; K(γE-x53) at 14; Aib at 20; C-terminal NH2) [SEQ ID NO: 46]	3.2
HXQGTFTSDLSKQKDSQAAQDFIEWLKAGGPSSGAPPPS (dSer at 2; K(γE-x53) at 14; C-terminal NH2) [SEQ ID NO: 39]	2.7
HXQGTFTSDLSKQKESRAAQDFIEWLKAGGPSSGAPPPS (dSer at 2; K(GABA-x53) at 14; C-terminal NH2) [SEQ ID NO: 50]	3.3
HXQGTFTSDLSKQKESQAAQDFIEWLKAGGPSSGAPPPS (dSer at 2; K(γE-x53) at 14; C-terminal NH2) [SEQ ID NO: 35]	1.5
HXQGTFTSDLSKQKDEKAAQDFIEWLKAGGPSSGAPPPS (dSer at 2; K(γE-x53) at 14; C-terminal NH2) [SEQ ID NO: 22]	1.1
HXQGTFTSDLSKQKDSRRAQDFIEWLKNGGPSSGAPPPS (dSer at 2; K(γE-x53) at 14; C-terminal NH2) [SEQ ID NO: 97]	3.5
HXQGTFTSDLSKQKESRAAQDFIEWLKAGGPSSGAPPPS (dSer at 2; K(γE-γE-x53) at 14; C-terminal NH2) [SEQ ID NO: 49]	1.1
HXQGTFTSDLSKQKESRAAQDFIEWLKAGGPSSGAPPPS (dSer at 2; K(γE-x53) at 14; C-terminal NH2) [SEQ ID NO: 44]	2.7
HXQGTFTSDLSKQKESKAAQDFIEWLKAGGPSSGAPPPS (dSer at 2; K(γE-x70) at 14; C-terminal NH2) [SEQ ID NO: 26]	5.1
HXQGTFTSDLSKQKESRAAQEFIEWLKAGGPSSGAPPPS (dSer at 2; K(γE-x53) at 14; C-terminal NH2) [SEQ ID NO: 47]	2.2
HXQGTFTSDLSKQKDEQAAQDFIEWLKAGGPSSGAPPPS (dSer at 2; K(γE-x53) at 14; C-terminal NH2) [SEQ ID NO: 34]	1.5
HXQGTFTSDLSKQKESRAAQLFIEWLKAGGPSSGAPPPS (dSer at 2; K(γE-x53) at 14; C-terminal NH2) [SEQ ID NO: 48]	5.9
HXQGTFTSDLSKQKDSRRAQDFIEWLKXGGPSSGAPPPS (dSer at 2; K(γE-x53) at 14; Aib at 28; C-terminal NH2) [SEQ ID NO: 78]	17.8
HXQGTFTSDLSKQKESQAAQDFIEWLKAGGPSSGAPPPS (dSer at 2; K(x53) at 14; C-terminal NH2) [SEQ ID NO: 42]	10.2
HXQGTFTSDLSKQKESKAAQDFIEWLKAGGPSSGAPPPS (dSer at 2; K(x53) at 14; C-terminal NH2) [SEQ ID NO: 32]	10.2
HXQGTFTSDLSKQKESRAAQLFIEWLKAGGPSSGAPPPS (dSer at 2; K(γE-x70) at 14; C-terminal NH2) [SEQ ID NO: 45]	7.5
HXQGTFTSDLSKQKESQAAQDFIEWLKAGGPSSGAPPPS (dSer at 2; K(γE-x70) at 14; C-terminal NH2) [SEQ ID NO: 40]	2.6
HXQGTFTSDLSKQKESQAAQEFIEWLKAGGPSSGAPPPS (dSer at 2; K(γE-x53) at 14; C-terminal NH2) [SEQ ID NO: 37]	1.5
HXQGTFTSDLSKQKDSRRAQDFIEWLKKGGPSSGAPPPS (dSer at 2; K(γE-x53) at 14; C-terminal NH2) [SEQ ID NO: 84]	8.1
HXQGTFTSDLSKQKESRRAXDFIEWLKAGGPSSGAPPPS (dSer at 2; K(γE-x53) at 14; Aib at 20; C-terminal NH2) [SEQ ID NO: 75]	11.1
HXQGTFTSDLSKQKESKAAQLFIEWLKAGGPSSGAPPPS (dSer at 2; K(γE-x53) at 14; C-terminal NH2) [SEQ ID NO: 29]	5.9

target: T2, human glucagon receptor (human, UniProt P47871 26-477); experiment: cell-based or functional assay
T2 sequence (P47871 26-477): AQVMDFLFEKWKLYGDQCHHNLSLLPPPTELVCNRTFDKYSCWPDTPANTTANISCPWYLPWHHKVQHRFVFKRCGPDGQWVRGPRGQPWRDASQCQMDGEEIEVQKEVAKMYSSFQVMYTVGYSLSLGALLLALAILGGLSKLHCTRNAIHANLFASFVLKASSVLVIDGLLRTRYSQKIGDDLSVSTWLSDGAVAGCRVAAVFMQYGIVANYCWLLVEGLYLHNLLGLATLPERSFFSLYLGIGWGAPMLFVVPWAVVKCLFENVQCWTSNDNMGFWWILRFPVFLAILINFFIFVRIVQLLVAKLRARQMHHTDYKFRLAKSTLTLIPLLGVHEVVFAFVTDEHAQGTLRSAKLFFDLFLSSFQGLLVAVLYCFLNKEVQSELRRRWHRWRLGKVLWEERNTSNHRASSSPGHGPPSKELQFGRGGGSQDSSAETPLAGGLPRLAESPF

Binder	EC50 hGlucagon-R (cAMP) [pM]
HXQGTFTSDLSKQKDSRRAQDFIEWLKAGGPSSGAPPPS (dSer at 2; K(γE-x53) at 14; C-terminal NH2) [SEQ ID NO: 74]	1.3
HXQGTFTSDLSKQKESKAAQEFIEWLKAGGPSSGAPPPS (dSer at 2; K(γE-x53) at 14; C-terminal NH2) [SEQ ID NO: 28]	12.6
HXQGTFTSDLSKQKESRAAXLFIEWLKAGGPSSGAPPPS (dSer at 2; K(γE-x53) at 14; Aib at 20; C-terminal NH2) [SEQ ID NO: 46]	25.1
HXQGTFTSDLSKQKDSQAAQDFIEWLKAGGPSSGAPPPS (dSer at 2; K(γE-x53) at 14; C-terminal NH2) [SEQ ID NO: 39]	7.6
HXQGTFTSDLSKQKESRAAQDFIEWLKAGGPSSGAPPPS (dSer at 2; K(GABA-x53) at 14; C-terminal NH2) [SEQ ID NO: 50]	11.1
HXQGTFTSDLSKQKESQAAQDFIEWLKAGGPSSGAPPPS (dSer at 2; K(γE-x53) at 14; C-terminal NH2) [SEQ ID NO: 35]	14.2
HXQGTFTSDLSKQKDEKAAQDFIEWLKAGGPSSGAPPPS (dSer at 2; K(γE-x53) at 14; C-terminal NH2) [SEQ ID NO: 22]	2.4
HXQGTFTSDLSKQKDSRRAQDFIEWLKNGGPSSGAPPPS (dSer at 2; K(γE-x53) at 14; C-terminal NH2) [SEQ ID NO: 97]	1
HXQGTFTSDLSKQKESRAAQDFIEWLKAGGPSSGAPPPS (dSer at 2; K(γE-γE-x53) at 14; C-terminal NH2) [SEQ ID NO: 49]	2.9
HXQGTFTSDLSKQKESRAAQDFIEWLKAGGPSSGAPPPS (dSer at 2; K(γE-x53) at 14; C-terminal NH2) [SEQ ID NO: 44]	12
HXQGTFTSDLSKQKESKAAQDFIEWLKAGGPSSGAPPPS (dSer at 2; K(γE-x70) at 14; C-terminal NH2) [SEQ ID NO: 26]	5.4
HXQGTFTSDLSKQKESRAAQEFIEWLKAGGPSSGAPPPS (dSer at 2; K(γE-x53) at 14; C-terminal NH2) [SEQ ID NO: 47]	10.3
HXQGTFTSDLSKQKDEQAAQDFIEWLKAGGPSSGAPPPS (dSer at 2; K(γE-x53) at 14; C-terminal NH2) [SEQ ID NO: 34]	6.7
HXQGTFTSDLSKQKESRAAQLFIEWLKAGGPSSGAPPPS (dSer at 2; K(γE-x53) at 14; C-terminal NH2) [SEQ ID NO: 48]	53.6
HXQGTFTSDLSKQKDSRRAQDFIEWLKXGGPSSGAPPPS (dSer at 2; K(γE-x53) at 14; Aib at 28; C-terminal NH2) [SEQ ID NO: 78]	1.6
HXQGTFTSDLSKQKESQAAQDFIEWLKAGGPSSGAPPPS (dSer at 2; K(x53) at 14; C-terminal NH2) [SEQ ID NO: 42]	199
HXQGTFTSDLSKQKESKAAQDFIEWLKAGGPSSGAPPPS (dSer at 2; K(x53) at 14; C-terminal NH2) [SEQ ID NO: 32]	188
HXQGTFTSDLSKQKESRAAQLFIEWLKAGGPSSGAPPPS (dSer at 2; K(γE-x70) at 14; C-terminal NH2) [SEQ ID NO: 45]	19.9
HXQGTFTSDLSKQKESQAAQDFIEWLKAGGPSSGAPPPS (dSer at 2; K(γE-x70) at 14; C-terminal NH2) [SEQ ID NO: 40]	4.8
HXQGTFTSDLSKQKESQAAQEFIEWLKAGGPSSGAPPPS (dSer at 2; K(γE-x53) at 14; C-terminal NH2) [SEQ ID NO: 37]	12.9
HXQGTFTSDLSKQKDSRRAQDFIEWLKKGGPSSGAPPPS (dSer at 2; K(γE-x53) at 14; C-terminal NH2) [SEQ ID NO: 84]	4.3
HXQGTFTSDLSKQKESRRAXDFIEWLKAGGPSSGAPPPS (dSer at 2; K(γE-x53) at 14; Aib at 20; C-terminal NH2) [SEQ ID NO: 75]	12.5
HXQGTFTSDLSKQKESKAAQLFIEWLKAGGPSSGAPPPS (dSer at 2; K(γE-x53) at 14; C-terminal NH2) [SEQ ID NO: 29]	87.9

target: T1, human GLP-1 receptor; experiment: cell-based or functional assay; remark: another data set of the same source

Binder	EC50 hGLP-1R (cAMP) [pM]
HXQGTFTSDLSKQKDSRRAQDFIEWLKAGGPSSGAPPPS (dSer at 2; K(γE-x53) at 14; C-terminal NH2) [SEQ ID NO: 74]	4.2
HXQGTFTSDLSKQKDSRRAQDFIEWLKXGGPSSGAPPPS (dSer at 2; K(γE-x53) at 14; Aib at 28; C-terminal NH2) [SEQ ID NO: 78]	17.8
HXQGTFTSDLSKQKDSRRAQDFIEWLKKGGPSSGAPPPS (dSer at 2; K(γE-x53) at 14; C-terminal NH2) [SEQ ID NO: 84]	8.1
HXQGTFTSDLSKQKESRRAXDFIEWLKAGGPSSGAPPPS (dSer at 2; K(γE-x53) at 14; Aib at 20; C-terminal NH2) [SEQ ID NO: 75]	11.1

target: T2, human glucagon receptor; experiment: cell-based or functional assay; remark: another data set of the same source

Binder	EC50 hGlucagon-R (cAMP) [pM]
HXQGTFTSDLSKQKDSRRAQDFIEWLKAGGPSSGAPPPS (dSer at 2; K(γE-x53) at 14; C-terminal NH2) [SEQ ID NO: 74]	1.3
HXQGTFTSDLSKQKDSRRAQDFIEWLKNGGPSSGAPPPS (dSer at 2; K(γE-x53) at 14; C-terminal NH2) [SEQ ID NO: 97]	1.2
HXQGTFTSDLSKQKDSRRAQDFIEWLKXGGPSSGAPPPS (dSer at 2; K(γE-x53) at 14; Aib at 28; C-terminal NH2) [SEQ ID NO: 78]	1.6
HXQGTFTSDLSKQKDSRRAQDFIEWLKKGGPSSGAPPPS (dSer at 2; K(γE-x53) at 14; C-terminal NH2) [SEQ ID NO: 84]	4.3
HXQGTFTSDLSKQKESRRAXDFIEWLKAGGPSSGAPPPS (dSer at 2; K(γE-x53) at 14; Aib at 20; C-terminal NH2) [SEQ ID NO: 75]	12.5
